In patent US20260116921A1, “PEPTIDE INHIBITORS OF INTERLEUKIN-23 RECEPTOR AND THEIR USE TO TREAT INFLAMMATORY DISEASES” (priority 2018, published 2026):
Numbered stars: 1 amine (or outer) side, 2 acyl side, 3 side chain; on linkers, the order of the positions; unused ones are H or OH. Bridge positions count the residues as written; N and C are the ends. Square brackets hold non-standard residues; d marks the D form. Trp(7-Et) = 7-ethyl-tryptophan, CCc1cccc2c(C[C@H](N[*:1])C(=O)[*:2])c[nH]c12; Trp(7-OMe) = COc1cccc2c(C[C@H](N)C(=O)O)c[nH]c12; His(π-Bom) = N[C@@H](Cc1cncn1COCc1ccccc1)C(=O)O; Trp(7-Me) = Cc1cccc2c(C[C@H](N)C(=O)O)c[nH]c12; 2Nal = N[C@@H](Cc1ccc2ccccc2c1)C(=O)O; AEF = NCCOc1ccc(C[C@H](N)C(=O)O)cc1; Cit = NC(=O)NCCC[C@H](N)C(=O)O; Pen = CC(C)(S)[C@H](N)C(=O)O; αMeK = C[C@](N)(CCCCN)C(=O)O; Aib = CC(C)(N)C(=O)O; βAla = NCCC(=O)O

T1: IL-23R (human, UniProt Q5VWK5 24-629)
T1 sequence (looked up): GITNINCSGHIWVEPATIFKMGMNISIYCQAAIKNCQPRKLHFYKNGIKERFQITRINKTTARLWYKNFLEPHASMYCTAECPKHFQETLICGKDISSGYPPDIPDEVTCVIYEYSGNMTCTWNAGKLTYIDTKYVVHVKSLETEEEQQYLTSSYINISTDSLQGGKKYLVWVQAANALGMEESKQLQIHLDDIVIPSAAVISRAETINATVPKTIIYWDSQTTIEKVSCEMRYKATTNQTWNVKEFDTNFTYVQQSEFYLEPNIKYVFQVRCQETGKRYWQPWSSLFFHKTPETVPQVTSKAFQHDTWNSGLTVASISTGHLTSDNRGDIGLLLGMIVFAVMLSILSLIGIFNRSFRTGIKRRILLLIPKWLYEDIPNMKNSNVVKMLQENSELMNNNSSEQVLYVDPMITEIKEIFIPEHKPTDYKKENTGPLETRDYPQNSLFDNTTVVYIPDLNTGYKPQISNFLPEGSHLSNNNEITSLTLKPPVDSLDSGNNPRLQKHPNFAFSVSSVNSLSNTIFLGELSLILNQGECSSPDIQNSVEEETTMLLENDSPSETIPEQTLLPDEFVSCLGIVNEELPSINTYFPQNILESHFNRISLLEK

B1: SEQ ID NO: 319 (peptide)
peptide: XNTXXXXXXKNL
modifications: Ac-[Pen]-N-T-[W(7-Me)]-[Lys(trifluoropropionic)]-[Pen]-Phe[4-(2-aminoethoxy)]-[2-Nal]-[a-MeLys]-[Lys(Ac)]-N-[(D)Leu]-NH2; Pen-Pen disulfide
B2: SEQ ID NO: 342 (peptide)
peptide: Ac-[Pen]NT[Trp(7-Me)][Cit][Pen][AEF][2Nal][αMeK]K(Ac)N[Aib]A-NH2
modifications: disulfide 1-6
SMILES: CC(=O)NCCCC[C@H](NC(=O)[C@](C)(CCCCN)NC(=O)[C@H](Cc1ccc2ccccc2c1)NC(=O)[C@H](Cc1ccc(OCCN)cc1)NC(=O)[C@H]1NC(=O)[C@H](CCCNC(N)=O)NC(=O)[C@H](Cc2c[nH]c3c(C)cccc23)NC(=O)[C@H]([C@@H](C)O)NC(=O)[C@H](CC(N)=O)NC(=O)[C@@H](NC(C)=O)C(C)(C)SSC1(C)C)C(=O)N[C@@H](CC(N)=O)C(=O)NC(C)(C)C(=O)N[C@@H](C)C(N)=O
B3: SEQ ID NO: 277 (peptide)
peptide: XNTXQXXXXKNX
modifications: Ac-[Pen]-N-T-[W(7-Me)]-Q-[Pen]-Phe[4-(2-aminoethoxy)]-[2-Nal]-[Acbc]-[Lys(Ac)]-N-[bA]-NH2; Pen-Pen disulfide
B4: SEQ ID NO: 341 (peptide)
peptide: Ac-[Pen]NT[Trp(7-Me)][Cit][Pen][AEF][2Nal][αMeK]K(Ac)N[Aib]G-NH2
modifications: disulfide 1-6
SMILES: CC(=O)NCCCC[C@H](NC(=O)[C@](C)(CCCCN)NC(=O)[C@H](Cc1ccc2ccccc2c1)NC(=O)[C@H](Cc1ccc(OCCN)cc1)NC(=O)[C@H]1NC(=O)[C@H](CCCNC(N)=O)NC(=O)[C@H](Cc2c[nH]c3c(C)cccc23)NC(=O)[C@H]([C@@H](C)O)NC(=O)[C@H](CC(N)=O)NC(=O)[C@@H](NC(C)=O)C(C)(C)SSC1(C)C)C(=O)N[C@@H](CC(N)=O)C(=O)NC(C)(C)C(=O)NCC(N)=O
B5: SEQ ID NO: 322 (peptide)
peptide: XNTXXXXXXKNL
modifications: Ac-[Pen]-N-T-[W(7-Me)]-[Lys(Aib)]-[Pen]-Phe[4-(2-aminoethoxy)]-[2-Nal]-[a-MeLys]-[Lys(Ac)]-N-[(D)Leu]-NH2; Pen-Pen disulfide
B6: SEQ ID NO: 340 (peptide)
peptide: Ac-[Pen]NT[Trp(7-Me)][Cit][Pen][AEF][2Nal][αMeK]K(Ac)N[Aib][βAla]-NH2
modifications: disulfide 1-6
SMILES: CC(=O)NCCCC[C@H](NC(=O)[C@](C)(CCCCN)NC(=O)[C@H](Cc1ccc2ccccc2c1)NC(=O)[C@H](Cc1ccc(OCCN)cc1)NC(=O)[C@H]1NC(=O)[C@H](CCCNC(N)=O)NC(=O)[C@H](Cc2c[nH]c3c(C)cccc23)NC(=O)[C@H]([C@@H](C)O)NC(=O)[C@H](CC(N)=O)NC(=O)[C@@H](NC(C)=O)C(C)(C)SSC1(C)C)C(=O)N[C@@H](CC(N)=O)C(=O)NC(C)(C)C(=O)NCCC(N)=O
B7: SEQ ID NO: 300 (peptide)
peptide: Ac-[Pen]NT[Trp(7-OMe)][Cit][Pen][AEF][2Nal][αMeK]K(Ac)N[dK]-NH2
modifications: disulfide 1-6
SMILES: COc1cccc2c(C[C@@H]3NC(=O)[C@H]([C@@H](C)O)NC(=O)[C@H](CC(N)=O)NC(=O)[C@@H](NC(C)=O)C(C)(C)SSC(C)(C)[C@@H](C(=O)N[C@@H](Cc4ccc(OCCN)cc4)C(=O)N[C@@H](Cc4ccc5ccccc5c4)C(=O)N[C@@](C)(CCCCN)C(=O)N[C@@H](CCCCNC(C)=O)C(=O)N[C@@H](CC(N)=O)C(=O)N[C@H](CCCCN)C(N)=O)NC(=O)[C@H](CCCNC(N)=O)NC3=O)c[nH]c12
B8: SEQ ID NO: 320 (peptide)
peptide: XNTXXXXXXKNL
modifications: Ac-[Pen]-N-T-[W(7-Me)]-[Lys(Gly)]-[Pen]-Phe[4-(2-aminoethoxy)]-[2-Nal]-[a-MeLys]-[Lys(Ac)]-N-[(D)Leu]-NH2; Pen-Pen disulfide

Molecular target: T1, IL-23R
Test: cell-based or functional assay

Row | pStat3 HTRF (nM) IC50 [nM] | Binder
1 | < 1 | B1
2 | > 100 | Ac-[Pen]NT[Trp(7-Me)]K(Ac)[Pen][His(π-Bom)][2Nal][αMeK]K(Ac)N[dL]-NH2 (disulfide 1-6) [SEQ ID NO: 291]
3 | < 1 | Ac-[Pen]NT[Trp(7-Et)]K(Ac)[Pen][AEF][2Nal][αMeK]K(Ac)N[dL]-NH2 (disulfide 1-6 (inferred)) [SEQ ID NO: 284]
4 | < 1 | B2
5 | < 1 | B3
6 | < 1 | B4
7 | < 1 | B5
8 | < 1 | B6
9 | > 100 | B7
10 | < 1 | B8
